Experimental data published in article PMC9712074 (Cell Reports, 2022).

Molecular target: SARS-CoV-2 (WT) Spike RBD Protein (His Tag) (SARS-CoV-2 ancestral (Wuhan-Hu-1), UniProt P0DTC2)

Binder | binding result
BD55-4664 (antibody, V domains shown) VH: QVQLQQWGAGLLRPSETLSLTCAVSGGSFSGYYWSWIRQPPGKGLEWIGEINHTGGTNYNPSLKSRVTVSIDMSRNQFSVKLNSLTAADTAVYFCAREAPDYFDSSGYRFDYWGQGALVTISS VL: QSALTQPASVSGSPGQSITISCTGTSNDVGGYNYVSWYQQHPGKAPKLIIYDVTSRPSGISNRFSGSKSGNTASLTISGLQAEDEADYYCCSYTRSFTRVFGGGTKLTVL | binds
BD55-5164 (antibody, V domains shown) VH: QLQLQESGPGLVKPSETLSLTCIVSRGSISSSSYFWAWVRQAPGKGLEWIGTIDYTGNTHYNTSLKSRVTISVDTSKNQFSLRLRSVTAADTALYFCSRQSAPPWGSSWGDYWGRGTLVTVSS VL: DIQMTQSPSSLSASVGDRVTISCQASQDISNYLNWYHQTPGKAPILLIFDASNLEAGVPSRFSGSGSGRHFSFTISSLQPEDTGTYYCQQYANLPALTFGGGTKVDIK | binds
BD55-4495 (antibody, V domains shown) VH: QGHLVQSGAEVKEPGASVTLSCKASGYTFTNHFMHWVRQAPGQGLEWMARINPSGDSTNLAQKFQGRVSVTRDSSTSTVYMYLSRLRVEDTAVYYCARDRFPSPGNFVWGSPLGGMDVWGQGTTVTVSS VL: SYDLAQPPSVSVSPGQTATITCSGAALPNQYAYWYQQKSGQAPVLLLYKDSERPSGIPERFSGSNSGTTVTLTISGVQAEDEAVYYCQSADSSTSYHVFGAGTKVTVL | binds
BD55-5163 (antibody, V domains shown) VH: QVQLVQSGAEVKKPGASLKVSCKASGYTFTYFGVSWVRQAPGQGLEWVGWISTYHGDTNYAQKLQGRVTLTTDTSTSTVYMELRNLRSDDTAIYYCAREGGSGWGDFWGQGTLVTVSS VL: EIVLTQSPATLSLSPGERATLSCRANQSISNYLAWYQQRPGQAPRLLIFDASNRATGIPARFTGSGSETDFTLTISSLEPEDFAVYYCQQRSNWPPAFGQGTRLDIK | binds
BD55-5001 (antibody, V domains shown) VH: QVQLVQSGSELKKPGASVKVSCKTSGYTFSTYAINWVRQAPGQGLEWMGWINTDTGIPTYAQGFTGRFVLSLDTSVGTAYLQISSLKAEDTAVYYCARADSGSYSWWFDPWGQGTLVTVSS VL: VIWMTQSPSSLSASIGDRVTISCRLSYGISSELVWYKQKPGKAPELLIYAASILQSGVPSRFSGTGSGTDFTLTISGLQSEDFATYYCQQYYSFPLTFGQGTKVEIK | binds
BD55-4760 (antibody, V domains shown) VH: EVQLVEAGGDLVQPGRSLRLSCAASGFNFDDCAMHWVRQAPGKGLEWVSGINWSSGDIDYADSVKGRFTISRDNAKNSLYLQMNSLRPEDTAFYYCAKDPWGELSSIDFWGQGTLVTVSS VL: QLVLTQSPSASASLGASVKLTCTLSRGHSSYAIAWHQQQPEKGPRYLMRVNSDGSHIKGDGIPDRFSGSSSGAERYLTISSLQSEDEADYYCQTWSIGIRVFGGGTKLTVL | binds
BD55-4892 (antibody, V domains shown) VH: QVQLVESGGGVVQPGGSLRLSCAASGFTFSTYGMHWVRQAPGKGLEWVAVISYDGNNKYHADSVKGRFTISRDNSKNTLYLEMKSLRAEDTAVYYCAKEVNYGSGSFENEGRLDYWGQGTLVTVSS VL: DIQMTQSPSSLSASVGDRVTITCRTSQSINRYLNWYQQKPGKAPKLLIYATSTLQSGVPSRFSGSGSGTDFILTISNLQPEDFAAYYCQQTYSIPWTFGQGTKVEIK | binds
BD55-4662 (antibody, V domains shown) VH: QVQLQESGPGLVKPSETLSLTCTVSGASISSYYWTWIRQPPGKGLEWIGYIYNSGSTDYSPRGSTNYSPSLESRVTISVDTSKNQFSLKLSSVTAADTAVYHCARHPWTEMATYRSAYYFDSWGQGTLVTVSS VL: QSALTQPASVSGSPGQSITISCTGTTSDVGAYNHVSWYQQHPGKAPNLMIYDVSERPSGVSDRFSASKSGNTASLTISGLQAEDEADYYCCSYAGRSTWMFGGGTKLTVL | binds
